Numbering of substitutions follows the chain as printed. Where two headings read alike, the source gives them in different places.
B1: VL19 with VH23: anti-human tau(pS422) antibody; VH SEQ ID NO: 55, VL SEQ ID NO: 38 (antibody, V domains shown)
VH: EVQVLESGGGLVQPGGSLRLSCAVSGFSLSSNAINWVRQAPGKGLEWVGYIAVSGNTYYADSVKGRFTISKDNSKNTVYLQMNSLRAEDTAVYYCGKSNIWGQGTLVTVSS
VL: AQVMTQSPSSLSASVGDRVTITCRSSQSVRTNKLAWFQQKPGQPPKRLIYSASTLDFGVPSRFSGSGSGTEFTLTISSLQPEDFATYYCLGYFDCSIADCVAFGGGTKVEIK
modifications: humanized sequence
B2: VL17 with VH03: anti-human tau(pS422) antibody; VH SEQ ID NO: 48, VL SEQ ID NO: 37 (antibody, V domains shown)
VH: QSVLESGGGLVQPGGSLRLSCAVSGFSLSSNAINWVRQAPGKGLEWVGYIAVSGNTYYASWAKGRFTISRDNSKNTLYLQMNSLRAEDTAVYYCGKSNIWGPGTLVTVSS
VL: B1 VL with A1D, Q2I, V3Q
modifications: humanized sequence
B3: VL17 with VH04: anti-human tau(pS422) antibody; VH SEQ ID NO: 49, VL SEQ ID NO: 37 (antibody, V domains shown)
VH: QSVLESGGGLVQPGGSLRLSCAVSGFSLSSNAINWVRQAPGKGLEWVGYIAVSGNTYYASWAKGRFTISRDSTTLYLQMNSLRAEDTAVYYCGKSNIWGPGTLVTVSS
VL: B1 VL with A1D, Q2I, V3Q
modifications: humanized sequence
B4: VL19 with VH24: anti-human tau(pS422) antibody; VH SEQ ID NO: 56, VL SEQ ID NO: 38 (antibody, V domains shown)
VH: B1 VH with V4L, V24A
VL: B1 VL
modifications: humanized sequence
B5: VL17 with VH01: anti-human tau(pS422) antibody; VH SEQ ID NO: 46, VL SEQ ID NO: 37 (antibody, V domains shown)
VH: B2 VH with S2Q, V3L, L4V, V23A, P102Q
VL: B1 VL with A1D, Q2I, V3Q
modifications: humanized sequence
B6: VL17 with VH15: anti-human tau(pS422) antibody; VH SEQ ID NO: 51, VL SEQ ID NO: 37 (antibody, V domains shown)
VH: B2 VH with L4V, V23A
VL: B1 VL with A1D, Q2I, V3Q
modifications: humanized sequence
B7: VL17 with VH02: anti-human tau(pS422) antibody; VH SEQ ID NO: 47, VL SEQ ID NO: 37 (antibody, V domains shown)
VH: B2 VH with V23A
VL: B1 VL with A1D, Q2I, V3Q
modifications: humanized sequence
B8: VH00/VL00: rabbit antibody reference (parent of humanized variants, from mAb 086); VH SEQ ID NO: 11, VL SEQ ID NO: 07 (antibody, listed as Oryctolagus cuniculus, V domains shown)
VH: QSVEESGGRLVTPGTPLTLTCTVSGFSLSSNAINWVRQAPGKGLEWIGYIAVSGNTYYASWAKGRFTISKASTTVDLKMTSPTAEDTGTYFCGKSNIWGPGTLVTVSL
VL: AQVLTQTTSPVSAAVGSTVTISCQSSQSVRTNKLAWFQQKPGQPPKRLIYSASTLDFGVPSRFSASGSGTQFTLTISDVQCDDAATYYCLGYFDCSIADCVAFGGGTEVVVK
B9: VL17 with VH00: anti-human tau(pS422) antibody; VH SEQ ID NO: 11, VL SEQ ID NO: 37 (antibody, listed as Oryctolagus cuniculus, V domains shown)
VH: B8 VH
VL: B1 VL with A1D, Q2I, V3Q
modifications: humanized sequence

Tests used:
human tau(pS422) = human tau(pS422) (Homo sapiens, UniProt P10636, S739X); assay: BIAcore kinetic screening and kinetic rates of humanized VH/VL combinations; assay type: binding; conditions: for kd / t/2 diss: VL17 or VL19 with VH variants; for MR: molar ratio
Experimental: In the following Table characteristics of the different humanized variants of the rabbit light chain variable domain in combination with the humanized heavy chain variable domains VH14 and VH20, respectively, are shown. Binding partner was human tau(pS422).
Kinetic screening was performed according to Schraeml et al. (Schraeml, M. and M. Biehl, Methods Mol. Biol. 901 (2012) 171-181) on a BIAcore 4000 instrument, mounted with a BIAcore CM5 sensor. The BIAcore 4000 instrument was under the control of the software version V1.1. A BIAcore CM5 series S chip was mounted into the instrument and was hydrodynamically addressed and preconditioned according to the manufacturer's instructions. The instrument buffer was HBS-EP buffer (10 mM HEPES (pH 7.4), 150 mM NaCl, 1 mM EDTA, 0.05% (w/v) P20). An antibody capture system was prepared on the sensor surface. A polyclonal goat anti-human antibody with human IgG-Fc specificity (Jackson Lab.) was immobilized at 30 μg/ml in 10 mM sodium acetate buffer (pH 5) to spots 1, 2, 4 and 5 in the instrument's flow cells 1, 2, 3 and 4 at 10,000 RU using NHS/EDC chemistry. In each flow cell the antibodies were captured on spot 1 and spot 5. Spot 2 and spot 4 were used as reference spots. The sensor was deactivated with a 1 M ethanolamine solution. Humanized antibody derivatives were applied at concentrations between 44 nM and 70 nM in instrument buffer supplemented with 1 mg/ml CMD (carboxymethyldextrane). The antibodies were injected at a flow rate of 30 μl/min for 2 minutes. The capture level (CL) of the surface-presented antibodies was measured in rel. response units (RU). The analytes in solution, phosphorylated human tau protein, non-phosphorylated human tau protein and the phosphorylated human tau mutant protein T422S were injected at 300 nM for 3 minutes at a flow rate of 30 μl/minute. The dissociation was monitored for 5 minutes. The capture system was regenerated by a 1 minute injection of 10 mM glycine buffer, pH 1.7 at 30 μL/minute over all flow cells. Two report points, the recorded signal shortly before the end of the analyte injection, denoted as binding late (BL) and the recorded signal shortly before the end of the dissociation time, stability late (SL), were used to characterize the kinetic screening performance. Furthermore, the dissociation rate constant kd (1/s) was calculated according to a Langmuir model and the antibody/antigen complex half-life was calculated in minutes according to the formula ln(2)/(60*kd). The molar ratio (MR) was calculated according to the formula MR=(Binding Late (RU))/(Capture level (RU))*(MW(antibody)/(MW(antigen)). In case the sensor was configured with a suitable amount of antibody ligand capture level, each antibody should be able to functionally bind at least to one analyte in solution, which is represented by a molar ratio of MR=1.0. Then, the molar ratio is also an indicator for the valence mode of analyte binding. The maximum valence can be MR=2 for an antibody binding two analytes, one with each Fab valence.
In another embodiment, kinetic rates were determined at 25° C. and 37° C. using the same experimental setup, but using multiple concentration series of each analyte in solution at 0 nM (buffer), 1.2 nM, 3.7 nM, 11.1 nM, 33.3 nM, 100 nM and 300 nM. From the concentration-dependent binding behavior the kinetic data was calculated using the BIAcore evaluation software according to the manufacturer's instructions and a Langmuir 1.1 model with RMAX global.

[1] = target: human tau phosphorylated at S422 (Homo sapiens, UniProt P10636, S739X); assay: Western Blot selectivity of humanized VH/VL combinations; assay type: binding; conditions: FIG. 5
Excerpt: FIG. 5 is a Western Blot showing the selectivity of selected humanized VH/VL combinations; (1)=VH00/VL00, (2)=VH32/VL21, (3)=VH20/VL22, (4)=VH32/VL22, (5)=VH33/VL22.
The sensitivity of selected humanized VH/VL combinations to the human tau mutant S422A can be seen from the Western Blots shown in FIG. 5. All humanized variants selectively bind to human tau phosphorylated at S422.

[2] = target: full length tau(pS422) SEQ ID NO: 02 (Homo sapiens, UniProt P10636, S739X); assay: ELISA binding specificity of VH/VL combinations
Experimental: (§1) In the following Table the binding specificity for different VH/VL combinations are shown (EC50 values in [ng/ml]).
(§2) Non-biotinylated peptide/protein/aggregate was added to non-coated Maxisorb plates, biotinylated peptide/protein/aggregate in PBS was added to streptavidin-coated Maxisorb plates, and plates were incubated over-night. The supernatant was discarded and the wells washed three times with 90 μl wash buffer (lx PBS/0.1% Tween 20). Remaining reactive spots were blocked with blocking buffer (lx PBS/2% BSA (Bovine Serum Albumin Fraction V, fatty acid free, Roche, Cat. No.: 10735078001)/0.05% Tween 20) by incubating for one hour. The supernatant was discarded and the wells washed three times with 90 μl wash buffer. Samples and control antibody were prepared in 12 dilutions (1:2) in ELISA buffer (lx PBS/0.5% BSA (Bovine Serum Albumin Fraction V, fatty acid free, Roche, Cat. No.: 10735078001)/0.05% Tween 20) with a start concentration of 500 ng/ml. The incubation time was 60 minutes at room temperature on a shaker. The supernatant was discarded and the wells washed three times with 90 μl wash buffer. Solutions of secondary antibody were prepared in ELISA buffer. A total of 25 μl antibody-mix was transferred to all wells of the assay plate and the plate was thereafter incubated on shaker for 60 minutes at room temperature. The supernatant was discarded and the wells were washed three times with 90 μl wash buffer. 25 μl of ABTS solution was added to all wells. The absorbance was read at 405 nm-492 nm.

[3] = target: T1, S422A tau mutant S422A SEQ ID NO: 01 (Homo sapiens, UniProt P10636, S739A); assay: ELISA binding specificity of VH/VL combinations
T1 construct: (A)=full length human tau S422A mutant
T1 sequence (P10636 1-441 isoform P10636-8 S422A): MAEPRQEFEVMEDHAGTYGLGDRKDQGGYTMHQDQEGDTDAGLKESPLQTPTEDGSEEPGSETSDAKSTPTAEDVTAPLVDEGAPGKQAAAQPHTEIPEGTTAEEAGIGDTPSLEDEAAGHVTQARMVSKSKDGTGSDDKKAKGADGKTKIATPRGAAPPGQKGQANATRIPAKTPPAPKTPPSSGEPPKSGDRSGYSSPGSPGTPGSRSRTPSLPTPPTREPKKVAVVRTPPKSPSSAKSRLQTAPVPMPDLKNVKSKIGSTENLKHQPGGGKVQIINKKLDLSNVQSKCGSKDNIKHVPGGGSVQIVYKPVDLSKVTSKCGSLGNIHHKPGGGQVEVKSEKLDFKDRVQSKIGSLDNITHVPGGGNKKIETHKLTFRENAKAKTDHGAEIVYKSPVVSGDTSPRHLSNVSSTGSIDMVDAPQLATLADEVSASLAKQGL
Experimental: as §1, §2

[4] = target: T2, tau peptide residues 416 to 430 of SEQ ID NO: 01 (Homo sapiens, UniProt P10636); assay: ELISA binding specificity of VH/VL combinations
T2 construct: 416 to 430
Experimental: as §1, §2

tau(pS422) aggregates = tau(pS422) aggregates (Homo sapiens, UniProt P10636, S739X); assay: ELISA binding specificity of VH/VL combinations
Experimental: as §1, §2

[5] = target: tau(pS422) fragment SEQ ID NO: 03 (Homo sapiens, UniProt P10636, S739X); assay: ELISA binding specificity of VH/VL combinations
Experimental: as §1, §2

| Molecule | kd (human tau(pS422); 25 °C) [s⁻¹] | t/2 diss (human tau(pS422); 25 °C) [min] | further results |
| --- | --- | --- | --- |
| B1 | 0.00057 | 20 |  |
| B2 | 0.00393 | 3 |  |
| B3 | 0.00416 | 3 |  |
| B4 | 0.00063 | 18 |  |
| B5 | 0.0023 | 5 |  |
| B6 | 0.00326 | 4 |  |
| B7 | 0.00371 | 3 |  |
| B8 |  |  | t/2diss 25° C. (human tau(pS422); 25 °C): 54 min; Kd (human tau(pS422); 25 °C, read-out: KD 25° C.): 8 nM; t/2diss 37° C. (human tau(pS422); 37 °C): 24 min; Kd (human tau(pS422); 37 °C, read-out: KD 37° C.): 12 nM; MR (human tau(pS422); 25 °C): 0.6; MR (human tau(pS422); 37 °C): 0.8; selectivity and cross-reactivity in Western Blot [1]: low level x-reactivity to non-S422 phosphoepitopes; EC50 full length tau(pS422) SEQ ID NO: 02 [2]: 5.2 ng/ml; EC50 S422A tau mutant S422A SEQ ID NO: 01 [3]: 0.0479 µg/mL; EC50 tau peptide residues 416 to 430 of SEQ ID NO: 01 [4]: >1 µg/mL; EC50 tau(pS422) aggregates (tau(pS422) aggregates): 18.1 ng/ml; EC50 tau(pS422) fragment SEQ ID NO: 03 [5]: 6.3 ng/ml |
| B9 | 0.000498 | 23 |  |

Source: patent US10251952B2, “Humanized anti-tau(pS422) antibody brain shuttles and use thereof” (Hoffmann-La Roche Inc., priority 2014, dated 2019)
